In assay [1] the target is Recombinant neuroligin-1 (NL-1) (UniProt Q62765). Put plainly: SPR; Biacore 2000; NL-1 immobilised on a CM4 chip by amine coupling (~2800 RU); analyte NX-1β Fc chimera 0.05-0.8 µM or Neurexide 1.25-20 µM; 25 °C; HBS-P (10 mM HEPES pH 7.4, 150 mM NaCl, 0.005% P20) with 3 mM CaCl2; 30 µl/min; 1:1 Langmuir fit.
Assay [2] addresses T1, Recombinant neuroligin-1 (NL-1) (UniProt Q62765 46-697).
T1 construct: neuroligin-1, recombinant; source: bought: R&D Systems (cat# 4340-NL)
The assay is described as above. The note with it: both partners purified.

Among the data in paper PMC7582164, “The soluble neurexin-1β ectodomain causes calcium influx and augments dendritic outgrowth and synaptic transmission” (Scientific Reports, 2020) are Kd values, retold here.

No end group written: not given here.

Chain of Recombinant neuroligin-1 (NL-1) (UniProt Q62765) (Q62765 46-697): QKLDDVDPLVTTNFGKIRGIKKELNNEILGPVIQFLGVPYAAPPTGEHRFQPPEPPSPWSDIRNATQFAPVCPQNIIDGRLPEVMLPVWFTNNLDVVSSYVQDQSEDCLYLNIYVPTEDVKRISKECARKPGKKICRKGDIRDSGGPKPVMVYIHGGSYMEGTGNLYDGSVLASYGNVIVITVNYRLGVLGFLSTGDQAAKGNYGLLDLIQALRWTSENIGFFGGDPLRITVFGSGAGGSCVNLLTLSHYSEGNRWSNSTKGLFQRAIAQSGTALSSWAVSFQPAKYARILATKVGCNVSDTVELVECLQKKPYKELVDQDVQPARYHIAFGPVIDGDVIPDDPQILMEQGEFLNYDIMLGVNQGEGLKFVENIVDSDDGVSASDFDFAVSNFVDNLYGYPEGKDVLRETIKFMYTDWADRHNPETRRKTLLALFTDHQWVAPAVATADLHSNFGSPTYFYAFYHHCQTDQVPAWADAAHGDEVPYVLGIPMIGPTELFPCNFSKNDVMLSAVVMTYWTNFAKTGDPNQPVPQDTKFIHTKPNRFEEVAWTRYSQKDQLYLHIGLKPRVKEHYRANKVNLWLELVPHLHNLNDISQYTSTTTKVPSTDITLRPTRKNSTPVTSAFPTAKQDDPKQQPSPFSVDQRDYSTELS
T1 sequence (Q62765 46-697): as above

Usually Kd stands for a measure of binding affinity in units of concentration. Turning to “Human neurexin-1β Fc-chimera (NX-1β ectodomain lacking splice site 4) (from UniProt P58400 51-396) (Fc fusion)”, in assay [1], the Kd was determined as 32 nM.

B1: Neurexide (synthetic 10-mer peptide modeled after the NX-1β binding site for NL-1), tetramer on a lysine backbone (peptide)
peptide: ARPSTRADRA
modifications: also: tetramer coupled to a lysine backbone
notes: The peptide was made as a C-terminally amidated monomer, a dimer and a tetramer; also called Neurexin peptide; source: synthetic peptide
For B1, the Kd in assay [2] turned out to be 480 nM.
